Experimental data reported in the supplement of paper PMC10567573.

B1: TEKT4 (parent)
chain: YARYHQAFADRDQSERQRHESQQL
B2: TRIM14 (parent)
chain: REQADSCREQLDIMNDLSNRVWSI
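Also: lentivirally expressed fusions sorted by FACS into six bins by GFP to DsRed ratio, PSI derived from sequencing read proportions per bin multiplied by bin number.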

Variants of: B1
Assay: protein stability index of a GFP-peptide fusion (GPS, HEK-293T) (PSI 1-6); higher = more stable
Conditions: c terminus: a fixed tail appended
YARYHQARADRDQSERQRHESQQL [F8R] gave a protein stability index of 3.73. Work on YARYHQAFADRDQSEMQRHESQQL [R16M] yielded a protein stability index of 1.89. Variant YARYHQAFADRDQSENQRHESQQL [R16N] has a protein stability index of 2.4. YARYHTAFADRDQSERQRHESQQL [Q6T] showed a protein stability index of 2.34. Variant YARYHWAFADRDQSERQRHESQQL [Q6W] has a protein stability index of 2.08. Variant YARYHQPFADRDQSERQRHESQQL [A7P] has a protein stability index of 3.56. For YARYHQAFADRDQSERQRHVSQQL [E20V], the protein stability index was 2.21. For YARPHQAFADRDQSERQRHESQQL [Y4P], the protein stability index was 4. For YARYHQAFADRDQSERQRHESQQW [L24W], the protein stability index was 1.85. Work on YAHYHQAFADRDQSERQRHESQQL [R3H] yielded a protein stability index of 2.64. YAAYHQAFADRDQSERQRHESQQL [R3A] showed a protein stability index of 2.85. For YARYHQAFADRDQSNRQRHESQQL [E15N], the protein stability index was 2.35. YARYHQAFADRDQSERQRQESQQL [H19Q] showed a protein stability index of 2.51. Variant YARYHQAFADRDASERQRHESQQL [Q13A] has a protein stability index of 1.96. Variant YARYHQAFADRDQAERQRHESQQL [S14A] has a protein stability index of 1.88.

Variants of: B2
Assay: as above
Conditions: c terminus: a fixed tail appended
Variant REQADSCREQLDIMNDLSNFVWSI [R20F] has a protein stability index of 2.12. REQADSCREQLDIMNDLSNSVWSI [R20S] showed a protein stability index of 2.41. REQADSCREQLDIMNDLSNGVWSI [R20G] gave a protein stability index of 2.77. REQADSCREQLDIMNDLSNVVWSI [R20V] showed a protein stability index of 2.4. REQADSCREQLDIMNDLSNWVWSI [R20W] showed a protein stability index of 1.64. Work on REQADSCREQLDIMNDLSNEVWSI [R20E] yielded a protein stability index of 3.04. For REQADSCREQLDIMNDLSNQVWSI [R20Q], the protein stability index was 1.79. With REQADSCREQLDIMNDLSNPVWSI [R20P] the protein stability index was 2.48. In the case of REQADSCREQLDIMNDLSNDVWSI [R20D], the protein stability index is reported as 3.31. With REQADSCREQLDIMNDLSNAVWSI [R20A] the protein stability index was 2.8. REQADSCREQLDIMNDLSNHVWSI [R20H] gave a protein stability index of 2.73. In the case of REQADSCREQLDIMNDLSNIVWSI [R20I], the protein stability index is reported as 2. For REQADSCREQLDIMNDLSNNVWSI [R20N], the protein stability index was 2.91. Work on REQADSCREQLDIMNDLSNLVWSI [R20L] yielded a protein stability index of 1.29. For REQADSCREQLDIMNDLSNTVWSI [R20T], the protein stability index was 2.19. Variant REQADSCREQLDIMNDLSNKVWSI [R20K] has a protein stability index of 2.78. For REQADSCREQLDIMNDLSNMVWSI [R20M], the protein stability index was 2.24. For REQADSCREQLDIMNDLSNYVWSI [R20Y], the protein stability index was 2.26. REQADSCREQLDIMNDLSNCVWSI [R20C] gave a protein stability index of 1.99. REQADSCREQLDIMWDLSNRVWSI [N15W] showed a protein stability index of 2.68. REQADSCREQLDIMYDLSNRVWSI [N15Y] showed a protein stability index of 1.96. Work on REQADSCREQLDIMNDLSNRVWSQ [I24Q] yielded a protein stability index of 3.34. In the case of REQADSCREQLDIMNDLSNRVWSV [I24V], the protein stability index is reported as 2.17. REQADSCREQLDIMNDLSNRVWSN [I24N] showed a protein stability index of 3.95. Variant REQADSCREQLDIMNDLSNRVWSD [I24D] has a protein stability index of 4.01. REQADSCREQLDIMNDLSNRVWSF [I24F] showed a protein stability index of 2.25. In the case of REQADSCREQLDIMNDLSNRVWSW [I24W], the protein stability index is reported as 2.31. Variant REQADSCREQLDIMNDLSNRVWSK [I24K] has a protein stability index of 3.55. In the case of REQADSCREQLDIMNDLSNRVWSS [I24S], the protein stability index is reported as 3.46. In the case of REQADSCREQLDIMNDLSNRVWSA [I24A], the protein stability index is reported as 2.89. Work on REQADSCREQLDIMNDLSNRVWSP [I24P] yielded a protein stability index of 3.64. REQADSCREQLDIMNDLSNRVWSM [I24M] showed a protein stability index of 2.79. Work on REQADSCREQLDIMNDLSNRVWSY [I24Y] yielded a protein stability index of 2.53. REQADSCREQLDIMNDLSNRVWSR [I24R] gave a protein stability index of 3.44. In the case of REQADSCREQLDIMNDLSNRVWSC [I24C], the protein stability index is reported as 2.53. REQADSCREQLDIMNDLSNRVWSE [I24E] showed a protein stability index of 3.68. Work on REQADSCREQLDIMNDLSNRVWSG [I24G] yielded a protein stability index of 3.72. Variant REQADSCREQLDIMNDLSNRVWST [I24T] has a protein stability index of 4.01. For REQADSCREQLDIMNDLSNRVWSL [I24L], the protein stability index was 2.46. With REQADSCREQLDIMNDLSNRVWSH [I24H] the protein stability index was 3.6. For REQADSCREQLDIMNDFSNRVWSI [L17F], the protein stability index was 2.13. REQADSCREQLDIMNDDSNRVWSI [L17D] gave a protein stability index of 3.18. With REQADSCREQLDIMNDPSNRVWSI [L17P] the protein stability index was 2.28. With REQADSCREQLDIMNDGSNRVWSI [L17G] the protein stability index was 2.96. REQADSCREQLDIMNDISNRVWSI [L17I] gave a protein stability index of 2.59. REQADSCREQLDIMNDTSNRVWSI [L17T] showed a protein stability index of 2.7. For REQADSCREQLDIMNDRSNRVWSI [L17R], the protein stability index was 2.25. Work on REQADSCREQLDIMNDKSNRVWSI [L17K] yielded a protein stability index of 2.59. REQADSCREQLDIMNDQSNRVWSI [L17Q] gave a protein stability index of 2.45. REQADSCREQLDIMNDASNRVWSI [L17A] showed a protein stability index of 2.46. REQADSCREQLDIMNDHSNRVWSI [L17H] gave a protein stability index of 2.71. REQADSCREQLDIMNDVSNRVWSI [L17V] gave a protein stability index of 2.68. Variant REQADSCREQLDIMNDMSNRVWSI [L17M] has a protein stability index of 2.63. In the case of REQADSCREQLDIMNDCSNRVWSI [L17C], the protein stability index is reported as 2.53. Work on REQADSCREQLDIMNDWSNRVWSI [L17W] yielded a protein stability index of 1.85. REQADSCREQLDIMNDNSNRVWSI [L17N] gave a protein stability index of 2.56. REQADSCREQLDIMNDYSNRVWSI [L17Y] gave a protein stability index of 2.1. For REQADSCREQLDIMNDSSNRVWSI [L17S], the protein stability index was 2.72. For REQADSCREQLDIMNDESNRVWSI [L17E], the protein stability index was 3.3. With REQADSCREQLDIMNDLSNRVWQI [S23Q] the protein stability index was 2.68. With REQADSCREQLDIMNDLSNRVWDI [S23D] the protein stability index was 4.14. With REQADSCREQLDIMNDLSNRVWEI [S23E] the protein stability index was 2.65. In the case of REQADSCREQLDIMNDLSNRVWGI [S23G], the protein stability index is reported as 2.66. Work on REQADSCREQLDIMNDLSNRVWVI [S23V] yielded a protein stability index of 3.3. For REQADSCREQLDIMNDLSNRVWTI [S23T], the protein stability index was 1.84. For REQADSCREQLDIMNDLSNRVWWI [S23W], the protein stability index was 3.05. Work on REQADSCREQLDIMNDLSNRVWKI [S23K] yielded a protein stability index of 2.09. Variant REQADSCREQLDIMNDLSNRVWCI [S23C] has a protein stability index of 2.57. In the case of REQADSCREQLDIMNDLSNRVWRI [S23R], the protein stability index is reported as 2.11. Work on REQADSCREQLDIMNDLSNRVWII [S23I] yielded a protein stability index of 2.75. Variant REQADSCREQLDIMNDLSNRVWFI [S23F] has a protein stability index of 2.03. In the case of REQADSCREQLDIMNDLSNRVWLI [S23L], the protein stability index is reported as 2.81. REQADSCREQLDIMNDLSNRVWNI [S23N] gave a protein stability index of 2.71. REQADSCREQLDIMNDLSNRVWPI [S23P] gave a protein stability index of 3.48. With REQADSCREQLDIMNDLSNRVWMI [S23M] the protein stability index was 2.22. In the case of REQADSCREQLDIMNDLSNRVWHI [S23H], the protein stability index is reported as 2.07. With REQADSCREQLDIMNDLSNRVWAI [S23A] the protein stability index was 2.09. Work on REQADSCREQLDIMNDLSNRVWYI [S23Y] yielded a protein stability index of 1.92. In the case of REQADSCREQLDIMNDLMNRVWSI [S18M], the protein stability index is reported as 2.01.
